Reference: patent US10427126B2, “System and method for longitudinal analysis of peptide synthesis” (Roche Sequencing Solutions, Inc., priority 2015, dated 2019)

Legend:
streptavidin [1] = target: T1, streptavidin (Streptomyces avidinii, UniProt P22629); conditions: peptide including the binder sequence; cited from earlier work
streptavidin [2] = target: T1, streptavidin; assay: Cy5-labeled streptavidin binding to control peptide features on a peptide array (fluorescence signal output, FIG. 12)
Description: Whereas the hypothetical data presented in FIGS. 8-11 are for two example peptide arrays, actual signal output data following interrogation of a population of control peptide features can be presented in alternative or additional formats. With reference to FIG. 12, data was collected for a peptide array synthesis operation including twelve total synthesis periods. Control peptide features having the streptavidin binder sequence WTHPQFE (SEQ ID NO:1) were synthesized over three consecutive and uninterrupted synthesis periods (e.g., see FIG. 3) with control peptide features synthesized beginning with each of the first ten synthesis periods. […] The signal output is measured for each of the control peptide features using one or more interrogation and detection techniques as described herein. […]
Control peptide features are analyzed following the completion of a synthesis operation by array deprotection, streptavidin binding, and array scanning. […] Streptavidin fluorescence signal is detected by scanning the array at 2 μm resolution and 15% gain with a 635 nm excitation wavelength using an MS200 microarray scanner.
Box and whisker plots for analysis of control peptide feature data are prepared in a two-part process. First, data is aggregated for a plurality of synthesis operations that were individually determined to pass a quality control assessment. […]

T1 sequence (P22629 25-183, species assumed): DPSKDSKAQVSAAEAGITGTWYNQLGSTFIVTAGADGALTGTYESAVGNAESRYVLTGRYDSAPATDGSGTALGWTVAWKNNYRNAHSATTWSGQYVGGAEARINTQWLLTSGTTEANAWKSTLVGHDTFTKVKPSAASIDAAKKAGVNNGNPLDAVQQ

FDEWL
binding by streptavidin (streptavidin [1]): can be bound by streptavidin

WTHPQFE
signal output as percentage of the aggregate data (2^14.3 units) (streptavidin [2]; fourth synthesis operation, synthesis period four): about 5% | signal output as percentage of the aggregate data (2^14.3 units) (streptavidin [2]; third synthesis operation): about 54%
